These results are taken from the supplement of paper PMC10724198.

± gives the standard deviation of the averaged measurements.

Data set [1] has as its system Saccharomyces cerevisiae. Description: protein stability index of tFT-peptide fusion (C-terminal peptide) (PSI (0-1 scale)); higher = more stable (slower turnover). As to conditions: genetic background: wild type; temperature: 30 C.
Data set [2] has as its system Saccharomyces cerevisiae. The data set is described as above. Here is the method:
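MPS profiling in S. cerevisiae of the tFT-X12 degron library: putative degron peptides plus stable controls, 12 aa, fused to the C-terminus of a sfGFP-mCherry timer. Cells are FACS-sorted into 8 mCherry/sfGFP bins and deep-sequenced. PSI runs from 0 (unstable) to 1 (stable). Backgrounds are wild type, das1Δ and doa10Δ at 30 °C, and wild type, das1Δ, cdc34-1 and cdc53-1 at 37 °C; 2-3 technical replicates each.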

Setting [3] is: genetic background: cdc34-1, temperature: 37 C.
The mark [4] stands for this setting: genetic background: cdc53-1, temperature: 37 C.
The mark [5] stands for this setting: genetic background: das1 deletion, temperature: 30 C.
Setting [6] is: genetic background: das1 deletion, temperature: 37 C.
Setting [7] is: genetic background: doa10 deletion, temperature: 30 C.
Setting [8] is: genetic background: wild type, temperature: 30 C.
The mark [9] stands for this setting: genetic background: wild type, temperature: 37 C.
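Also: PSI is a weighted mean of sequencing reads over stability bins, variants kept only with over 10 reads, mCherry proximal and sfGFP distal, peptide attached via GGGS linker.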

As to VVGVLLLYLNPF, the protein stability index stood at 0.4677 ± 0.0038 in the data set with Saccharomyces cerevisiae [1]; 0.431 ± 0.0048 in the data set with Saccharomyces cerevisiae [2] (setting [3]); 0.5071 ± 0.0037 with Saccharomyces cerevisiae [2] (setting [4]); 0.351 ± 0.025 in the data set with Saccharomyces cerevisiae [2] (setting [5]); 0.572 ± 0.023 with Saccharomyces cerevisiae [2] (setting [6]); 0.3188 ± 0.0024 with Saccharomyces cerevisiae [2] (setting [7]). For the same sequence, the protein stability index is 0.336 ± 0.039 with Saccharomyces cerevisiae [2] (setting [8]) and 0.525 ± 0.0095 with Saccharomyces cerevisiae [2] (setting [9]).

Consider VVLWWWVVARDL, for which the protein stability index was 0.44 ± 0.028 with Saccharomyces cerevisiae [1]; 0.414 ± 0.019 with Saccharomyces cerevisiae [2] (setting [3]); 0.495 ± 0.038 in the data set on Saccharomyces cerevisiae [2] (setting [4]); 0.402 ± 0.03 in the data set on Saccharomyces cerevisiae [2] (setting [5]); 0.551 ± 0.031 in the data set on Saccharomyces cerevisiae [2] (setting [6]); 0.332 ± 0.026 in the data set on Saccharomyces cerevisiae [2] (setting [7]). In addition, the protein stability index amounted to 0.339 ± 0.03 with Saccharomyces cerevisiae [2] (setting [8]) and 0.514 ± 0.01 in the data set on Saccharomyces cerevisiae [2] (setting [9]).

With VVRLRVWRLLKV, the protein stability index in the data set on Saccharomyces cerevisiae [1] was found to be 0.225 ± 0.023; with Saccharomyces cerevisiae [2] (setting [3]), 0.267 ± 0.022; in the data set on Saccharomyces cerevisiae [2] (setting [4]), 0.33 ± 0.048; with Saccharomyces cerevisiae [2] (setting [5]), 0.253 ± 0.03; in the data set on Saccharomyces cerevisiae [2] (setting [6]), 0.42491 ± 4.8e-05; with Saccharomyces cerevisiae [2] (setting [7]), 0.101 ± 0.034. Moreover, the protein stability index with Saccharomyces cerevisiae [2] (setting [8]) was determined as 0.161 ± 0.026; in the data set on Saccharomyces cerevisiae [2] (setting [9]) it was 0.185 ± 0.016.

VVRSIVVYTCVF: the protein stability index with Saccharomyces cerevisiae [1] was found to be 0.352 ± 0.021; in the data set on Saccharomyces cerevisiae [2] (setting [3]), 0.3284 ± 0.0017; in the data set with Saccharomyces cerevisiae [2] (setting [4]), 0.365 ± 0.041; in the data set with Saccharomyces cerevisiae [2] (setting [5]), 0.262 ± 0.026; with Saccharomyces cerevisiae [2] (setting [6]), 0.4241 ± 0.0025; with Saccharomyces cerevisiae [2] (setting [7]), 0.219 ± 0.0039. Besides, the results for the protein stability index in the data set on Saccharomyces cerevisiae [2] (setting [8]) and in the data set with Saccharomyces cerevisiae [2] (setting [9]) were 0.253 ± 0.02 and 0.405 ± 0.0074, respectively.

Turning to VVRVIWCQFSCF, the protein stability index with Saccharomyces cerevisiae [1] was 0.334 ± 0.0057; in the data set with Saccharomyces cerevisiae [2] (setting [3]) it was 0.494 ± 0.036; with Saccharomyces cerevisiae [2] (setting [4]) it was 0.545 ± 0.016; with Saccharomyces cerevisiae [2] (setting [5]), 0.414 ± 0.026; in the data set on Saccharomyces cerevisiae [2] (setting [6]), 0.595 ± 0.017; with Saccharomyces cerevisiae [2] (setting [7]), 0.208 ± 0.0071. In addition, the results for the protein stability index with Saccharomyces cerevisiae [2] (setting [8]) and in the data set on Saccharomyces cerevisiae [2] (setting [9]) were 0.234 ± 0.022 and 0.434 ± 0.027, respectively.

For the sequence VVTLHISLFYPG, the protein stability index is 0.479 ± 0.023 in the data set with Saccharomyces cerevisiae [1]; 0.447 ± 0.033 with Saccharomyces cerevisiae [2] (setting [3]); 0.511 ± 0.018 with Saccharomyces cerevisiae [2] (setting [4]); 0.406 ± 0.031 in the data set with Saccharomyces cerevisiae [2] (setting [5]); 0.5 ± 0.0056 in the data set on Saccharomyces cerevisiae [2] (setting [6]); 0.418 ± 0.06 with Saccharomyces cerevisiae [2] (setting [7]). Further, the results for the protein stability index in the data set on Saccharomyces cerevisiae [2] (setting [8]) and with Saccharomyces cerevisiae [2] (setting [9]) were 0.415 ± 0.029 and 0.461 ± 0.019, respectively.

In the case of VVVRARVFFHIF, the protein stability index worked out at 0.0561 ± 0.048 in the data set on Saccharomyces cerevisiae [1]; 0.285 ± 0.012 in the data set on Saccharomyces cerevisiae [2] (setting [3]); 0.444 ± 0.015 with Saccharomyces cerevisiae [2] (setting [4]); 0.361 ± 0.022 in the data set on Saccharomyces cerevisiae [2] (setting [5]); 0.538 ± 0.006 in the data set on Saccharomyces cerevisiae [2] (setting [6]); 0.0651 ± 0.0018 with Saccharomyces cerevisiae [2] (setting [7]). Also, the protein stability index was determined as 0.0583 ± 0.025 in the data set on Saccharomyces cerevisiae [2] (setting [8]) and 0.07 ± 0.014 with Saccharomyces cerevisiae [2] (setting [9]).

VVWLFGVSWCWL: the protein stability index worked out at 0.419 ± 0.0056 in the data set on Saccharomyces cerevisiae [1]; 0.429 ± 0.018 in the data set with Saccharomyces cerevisiae [2] (setting [3]); 0.5093 ± 0.0025 in the data set with Saccharomyces cerevisiae [2] (setting [4]); 0.355 ± 0.022 with Saccharomyces cerevisiae [2] (setting [5]); 0.525 ± 0.006 with Saccharomyces cerevisiae [2] (setting [6]); 0.313 ± 0.011 with Saccharomyces cerevisiae [2] (setting [7]). Moreover, the protein stability index was 0.34 ± 0.03 in the data set with Saccharomyces cerevisiae [2] (setting [8]) and 0.518 ± 0.015 in the data set on Saccharomyces cerevisiae [2] (setting [9]).

For VWACWCGWVLLM, the protein stability index was determined as 0.235 ± 0.072 in the data set on Saccharomyces cerevisiae [1]; 0.319 ± 0.038 in the data set on Saccharomyces cerevisiae [2] (setting [3]); 0.388 ± 0.024 in the data set with Saccharomyces cerevisiae [2] (setting [4]); 0.314 ± 0.027 in the data set on Saccharomyces cerevisiae [2] (setting [5]); 0.4667 ± 0.0039 in the data set on Saccharomyces cerevisiae [2] (setting [6]); 0.153 ± 0.0066 in the data set with Saccharomyces cerevisiae [2] (setting [7]). In addition, the protein stability index with Saccharomyces cerevisiae [2] (setting [8]) worked out at 0.15 ± 0.019; in the data set on Saccharomyces cerevisiae [2] (setting [9]), 0.195 ± 0.0032.

For the sequence VWLFCLSRLYLL, the protein stability index was found to be 0.206 ± 0.052 with Saccharomyces cerevisiae [1]; 0.298 ± 0.039 with Saccharomyces cerevisiae [2] (setting [3]); 0.383 ± 0.007 with Saccharomyces cerevisiae [2] (setting [4]); 0.38 ± 0.03 in the data set with Saccharomyces cerevisiae [2] (setting [5]); 0.4939 ± 0.0043 with Saccharomyces cerevisiae [2] (setting [6]); 0.143 ± 0.015 in the data set on Saccharomyces cerevisiae [2] (setting [7]). The figures for the protein stability index in the data set with Saccharomyces cerevisiae [2] (setting [8]) and with Saccharomyces cerevisiae [2] (setting [9]) were 0.101 ± 0.023 and 0.114 ± 0.011, respectively.

Regarding VYCQRFMLLFTP, the protein stability index in the data set on Saccharomyces cerevisiae [1] was 0.4872 ± 0.0007; in the data set with Saccharomyces cerevisiae [2] (setting [3]), 0.527 ± 0.059; with Saccharomyces cerevisiae [2] (setting [4]), 0.535 ± 0.019; in the data set on Saccharomyces cerevisiae [2] (setting [5]), 0.459 ± 0.03; in the data set with Saccharomyces cerevisiae [2] (setting [6]), 0.581 ± 0.021; in the data set on Saccharomyces cerevisiae [2] (setting [7]), 0.553 ± 0.011. Further, the protein stability index in the data set on Saccharomyces cerevisiae [2] (setting [8]) came to 0.433 ± 0.0094; in the data set on Saccharomyces cerevisiae [2] (setting [9]) it was 0.55 ± 0.0071.

For VYGSLPVVVCRI, the protein stability index was found to be 0.525 ± 0.065 in the data set with Saccharomyces cerevisiae [1]; 0.534 ± 0.059 in the data set with Saccharomyces cerevisiae [2] (setting [3]); 0.538 ± 0.013 in the data set with Saccharomyces cerevisiae [2] (setting [4]); 0.409 ± 0.023 in the data set on Saccharomyces cerevisiae [2] (setting [5]); 0.56 ± 0.016 in the data set with Saccharomyces cerevisiae [2] (setting [6]); 0.4 ± 0.022 with Saccharomyces cerevisiae [2] (setting [7]). Moreover, the values for the protein stability index with Saccharomyces cerevisiae [2] (setting [8]) and in the data set on Saccharomyces cerevisiae [2] (setting [9]) were 0.413 ± 0.011 and 0.539 ± 0.011, respectively.

Turning to VYIVLLLLFLRP, the protein stability index in the data set on Saccharomyces cerevisiae [1] was found to be 0.308 ± 0.031; in the data set with Saccharomyces cerevisiae [2] (setting [3]), 0.356 ± 0.0046; in the data set with Saccharomyces cerevisiae [2] (setting [4]), 0.378 ± 0.013; in the data set with Saccharomyces cerevisiae [2] (setting [5]), 0.317 ± 0.031; in the data set on Saccharomyces cerevisiae [2] (setting [6]), 0.407 ± 0.021; in the data set on Saccharomyces cerevisiae [2] (setting [7]), 0.3194 ± 0.003. Moreover, the protein stability index in the data set with Saccharomyces cerevisiae [2] (setting [8]) came out at 0.319 ± 0.015; in the data set with Saccharomyces cerevisiae [2] (setting [9]) it was 0.3951 ± 0.0015.

In the case of VYLVLRCGSVLV, the protein stability index stood at 0.443 ± 0.054 in the data set on Saccharomyces cerevisiae [1]; 0.565 ± 0.015 in the data set on Saccharomyces cerevisiae [2] (setting [3]); 0.56 ± 0.032 with Saccharomyces cerevisiae [2] (setting [4]); 0.406 ± 0.021 with Saccharomyces cerevisiae [2] (setting [5]); 0.597 ± 0.011 in the data set on Saccharomyces cerevisiae [2] (setting [6]); 0.379 ± 0.018 in the data set on Saccharomyces cerevisiae [2] (setting [7]). Further, the protein stability index is 0.399 ± 0.016 in the data set with Saccharomyces cerevisiae [2] (setting [8]) and 0.586 ± 0.02 with Saccharomyces cerevisiae [2] (setting [9]).

As for VYVLVFNMENIS, the protein stability index with Saccharomyces cerevisiae [1] amounted to 0.4891 ± 0.0047; in the data set on Saccharomyces cerevisiae [2] (setting [3]), 0.5603 ± 0.0009; in the data set with Saccharomyces cerevisiae [2] (setting [4]) it was 0.588 ± 0.0096; in the data set on Saccharomyces cerevisiae [2] (setting [5]), 0.382 ± 0.03; in the data set with Saccharomyces cerevisiae [2] (setting [6]), 0.616 ± 0.011; in the data set with Saccharomyces cerevisiae [2] (setting [7]) it was 0.382 ± 0.0068. For the same sequence, the protein stability index is 0.401 ± 0.033 in the data set on Saccharomyces cerevisiae [2] (setting [8]) and 0.585 ± 0.036 with Saccharomyces cerevisiae [2] (setting [9]).

As for VYVSRTRPFSLY, the protein stability index in the data set on Saccharomyces cerevisiae [1] was 0.428 ± 0.031; in the data set on Saccharomyces cerevisiae [2] (setting [3]), 0.682 ± 0.052; with Saccharomyces cerevisiae [2] (setting [4]), 0.7141 ± 0.0054; in the data set on Saccharomyces cerevisiae [2] (setting [5]), 0.63 ± 0.011; with Saccharomyces cerevisiae [2] (setting [6]), 0.728 ± 0.022; in the data set on Saccharomyces cerevisiae [2] (setting [7]), 0.33 ± 0.0094. The protein stability index turned out to be 0.3687 ± 0.0034 in the data set on Saccharomyces cerevisiae [2] (setting [8]) and 0.573 ± 0.007 with Saccharomyces cerevisiae [2] (setting [9]).

On to WACAWRGMVKVG, for which the protein stability index came out at 0.156 ± 0.018 with Saccharomyces cerevisiae [1]; 0.202 ± 0.021 in the data set on Saccharomyces cerevisiae [2] (setting [3]); 0.245 ± 0.0068 in the data set on Saccharomyces cerevisiae [2] (setting [4]); 0.232 ± 0.034 in the data set on Saccharomyces cerevisiae [2] (setting [5]); 0.38 ± 0.0041 with Saccharomyces cerevisiae [2] (setting [6]); 0.0812 ± 0.0095 in the data set with Saccharomyces cerevisiae [2] (setting [7]). Also, the protein stability index with Saccharomyces cerevisiae [2] (setting [8]) was determined as 0.0897 ± 0.021; with Saccharomyces cerevisiae [2] (setting [9]), 0.0811 ± 0.0041.
